Test results published in PMC3222324, “PEGylating a bacteriophage endolysin inhibits its bactericidal activity” (AMB Express, 2011).

Biological target: the molecule itself
Experiment: non-reducing SDS-PAGE; purified enzyme, not reduced; 37 kDa and 74 kDa bands (Figure 1, lane 2)

B1: Cpl-1^C45S;D194C (enzyme, pneumococcal phage, UniProt P15057 1-339, looked up)
chain: MVKKNDLFVDVSSHNGYDITGILEQMGTTNTIIKISESTTYLNPSLSAQVEQSNPIGFYHFARFGGDVAEAEREAQFFLDNVPMQVKYLVLDYEDDPSGDAQANTNACLRFMQMIADAGYKPIYYSYKPFTHDNVDYQQILAQFPNSLWIAGYGLNDGTANFEYFPSMDGIRWWQYSSNPFDKNIVLLDDEEDCKPKTAGTWKQDSKGWWFRRNNGSFPYNKWEKIGGVWYYFDSKGYCLTSEWLKDNEKWYYLKDNGAMATGWVLVGSEWYYMDDSGAMVTGWVKYKNNWYYMTNERGNMVSNEFIKSGKGWYFMNTNGELADNPSFTKEPDGLITVA
notes: Cpl-1, pneumococcal phage lysin (endolysin); gene originally carried on plasmid pJML6; expected 37 kDa band; Purified preparation holds the 37 kDa monomer and a 74 kDa disulfide-linked dimer; construct described in Resch et al., 2011; source: E. coli DH5α, purified (DEAE-Sepharose, eluted with choline)
With B1 the “stoichiometry N” value was 2.
